From article PMC8347636

Experiments:
[1] = immunofluorescence, nuclear localisation, all cell lines; conditions: glycan lost; control: wild type ER-tag CD24
[2] = immunofluorescence, % cells with plasma membrane CD24, MCF-7; conditions: glycan lost; control: wild type ER-tag CD24
[3] = immunofluorescence, % cells with plasma membrane CD24, Hs578T; conditions: glycan lost; control: wild type ER-tag CD24
[4] = immunofluorescence, % cells with plasma membrane CD24, HEK293T; conditions: glycan lost; control: wild type ER-tag CD24
[5] = immunofluorescence, % cells with plasma membrane CD24, MDA-MB-231; conditions: glycan lost; control: wild type ER-tag CD24
[6] = confocal immunofluorescence, % cells with plasma membrane CD24, MDA-MB-231; conditions: glycan changed form; control: untreated cells, same construct
[7] = confocal immunofluorescence, plasma membrane vs cytoplasm, MCF-7; conditions: glycan changed form; control: untreated cells, same construct
[8] = confocal immunofluorescence, plasma membrane vs cytoplasm, HEK293T; conditions: glycan changed form; control: untreated cells, same construct
[9] = confocal immunofluorescence, % cells with plasma membrane CD24, Hs578T; conditions: glycan changed form; control: untreated cells, same construct

B1: CD24: N36Q (protein)
parent chain: MGRAMVARLGLGLLLLALLLPTQIYSSETTTGTSSNSSQSTSNSGLAPNPTNATTKAAGGALQSTASLFVVSLSLLHLYS
localisation_or_trafficking [1]: no change
localisation_or_trafficking [2]: no change
localisation_or_trafficking [3]: decreases
localisation_or_trafficking [4]: decreases
localisation_or_trafficking [5]: no change

B2: CD24: N36,52Q (protein)
parent chain: B1 parent chain
localisation_or_trafficking [1]: no change
localisation_or_trafficking [2]: no change
localisation_or_trafficking [3]: decreases
localisation_or_trafficking [4]: decreases
localisation_or_trafficking [5]: decreases

B3: CD24: kifunensine, WT-CD24 (protein)
parent chain: B1 parent chain
localisation_or_trafficking [6]: decreases

B4: CD24: kifunensine, wild type CD24 (protein)
parent chain: B1 parent chain
localisation_or_trafficking [7]: no change
localisation_or_trafficking [8]: decreases
localisation_or_trafficking, other: % decrease in cells with membrane CD24 [9]: decreases

B5: CD24: N52Q (protein)
parent chain: B1 parent chain
localisation_or_trafficking [1]: no change
localisation_or_trafficking [2]: no change
localisation_or_trafficking [3]: decreases
localisation_or_trafficking [4]: decreases
localisation_or_trafficking [5]: decreases
